Reference: patent US20130085101A1

Target: human Type 1 IGF receptor (human) (UniProt P08069)
Test: competitive displacement of 125I-Tyr31-IGF-I; FLAG-tagged IGF-1R captured on anti-FLAG plate

human Type 1 IGF receptor (human), sequence (P08069 31-1367 limits assumed): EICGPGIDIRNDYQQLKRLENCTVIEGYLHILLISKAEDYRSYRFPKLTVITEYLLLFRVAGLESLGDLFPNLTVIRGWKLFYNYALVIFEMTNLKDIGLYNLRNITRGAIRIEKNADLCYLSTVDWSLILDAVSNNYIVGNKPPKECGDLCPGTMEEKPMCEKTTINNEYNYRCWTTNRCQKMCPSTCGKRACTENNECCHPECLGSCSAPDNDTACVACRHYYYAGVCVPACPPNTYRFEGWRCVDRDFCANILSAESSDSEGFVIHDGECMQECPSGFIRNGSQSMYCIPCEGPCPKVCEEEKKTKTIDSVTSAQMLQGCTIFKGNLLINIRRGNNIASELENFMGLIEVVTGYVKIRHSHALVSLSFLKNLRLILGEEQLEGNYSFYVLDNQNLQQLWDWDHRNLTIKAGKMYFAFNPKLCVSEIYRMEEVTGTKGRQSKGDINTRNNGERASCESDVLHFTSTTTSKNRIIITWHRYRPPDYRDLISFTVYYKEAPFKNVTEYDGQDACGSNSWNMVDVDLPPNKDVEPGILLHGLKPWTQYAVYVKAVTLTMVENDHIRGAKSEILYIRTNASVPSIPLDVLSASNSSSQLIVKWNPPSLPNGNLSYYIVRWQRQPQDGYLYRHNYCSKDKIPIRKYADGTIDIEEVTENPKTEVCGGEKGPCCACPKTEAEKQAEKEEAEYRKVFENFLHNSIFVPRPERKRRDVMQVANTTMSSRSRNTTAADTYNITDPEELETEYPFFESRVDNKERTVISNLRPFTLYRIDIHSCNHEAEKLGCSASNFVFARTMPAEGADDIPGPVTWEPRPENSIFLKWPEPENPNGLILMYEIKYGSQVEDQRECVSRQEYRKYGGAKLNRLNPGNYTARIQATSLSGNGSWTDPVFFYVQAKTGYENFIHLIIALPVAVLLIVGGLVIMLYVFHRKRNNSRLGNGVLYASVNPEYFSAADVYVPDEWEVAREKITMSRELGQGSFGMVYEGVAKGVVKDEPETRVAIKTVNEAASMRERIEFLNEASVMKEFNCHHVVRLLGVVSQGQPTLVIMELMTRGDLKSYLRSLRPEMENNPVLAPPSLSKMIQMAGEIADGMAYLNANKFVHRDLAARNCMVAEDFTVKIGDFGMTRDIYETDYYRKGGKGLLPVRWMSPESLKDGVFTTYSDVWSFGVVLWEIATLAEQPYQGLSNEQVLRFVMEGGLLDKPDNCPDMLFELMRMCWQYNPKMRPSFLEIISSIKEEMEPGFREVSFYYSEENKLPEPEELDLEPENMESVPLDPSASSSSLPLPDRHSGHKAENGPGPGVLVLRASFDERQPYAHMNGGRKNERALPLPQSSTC

relative affinity (percent (of IGF-I for IGF-1R)): 0.27
Substance: lispro-insulin (ligand; other documents disagree on this pair)
